Columns and labels:
SRSF1 RRM1 WT = SRSF1 RRM1 WT (human, UniProt Q07955 1-97); assay: NMR; saturation at 1:1; NMR buffer: 50 mM L-Glu, 50 mM L-Arg, 0.05% beta-mercaptoethanol, 20 mM Na2HPO4 pH 7 (RRM1+2: plus 150 mM KCl, 1.5 mM MgCl2, 0.2 mM EDTA); NMR and ITC at 40 C; conditions: protein: recombinant; tags: N-terminal GB1-6xHis
SRSF1 RRM1 YS = SRSF1 RRM1 YS (human, UniProt Q07955 1-97, Y37S;Y72S); assay: ITC; NMR buffer: 50 mM L-Glu, 50 mM L-Arg, 0.05% beta-mercaptoethanol, 20 mM Na2HPO4 pH 7 (RRM1+2: plus 150 mM KCl, 1.5 mM MgCl2, 0.2 mM EDTA); NMR and ITC at 40 C; conditions: protein: recombinant; tags: N-terminal GB1-6xHis
SRSF1 RRM1 YS, sequence (Q07955 1-97 Y37S/Y72S): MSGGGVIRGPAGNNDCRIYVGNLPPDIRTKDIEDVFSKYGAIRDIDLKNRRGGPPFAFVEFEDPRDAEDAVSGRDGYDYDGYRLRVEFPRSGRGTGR

[1] = biological target: T1, SRSF1 RRM1 (YS or WT not stated) (human, UniProt Q07955 1-97); assay: NMR solution structure; 1:1 complex; NMR buffer: 50 mM L-Glu, 50 mM L-Arg, 0.05% beta-mercaptoethanol, 20 mM Na2HPO4 pH 7 (RRM1+2: plus 150 mM KCl, 1.5 mM MgCl2, 0.2 mM EDTA); NMR and ITC at 40 C; conditions: protein: recombinant; tags: N-terminal GB1-6xHis
T1 sequence (Q07955 1-97): as the sequence (Q07955 1-97 Y37S/Y72S) above, with S37Y, S72Y counted along it

[2] = biological target: T1, SRSF1 RRM1 (YS or WT not stated); assay: NMR; NMR buffer: 50 mM L-Glu, 50 mM L-Arg, 0.05% beta-mercaptoethanol, 20 mM Na2HPO4 pH 7 (RRM1+2: plus 150 mM KCl, 1.5 mM MgCl2, 0.2 mM EDTA); NMR and ITC at 40 C; conditions: protein: recombinant; tags: N-terminal GB1-6xHis
[3] = biological target: T2, SRSF1 RRM1+2 YS (RRM12 YS) (human, UniProt Q07955 1-196, Y37S;Y72S); assay: NMR; saturation at 1:1; NMR buffer: 50 mM L-Glu, 50 mM L-Arg, 0.05% beta-mercaptoethanol, 20 mM Na2HPO4 pH 7 (RRM1+2: plus 150 mM KCl, 1.5 mM MgCl2, 0.2 mM EDTA); NMR and ITC at 40 C; conditions: protein: recombinant; tags: GB1, His
T2 sequence (Q07955 1-196 Y37S/Y72S): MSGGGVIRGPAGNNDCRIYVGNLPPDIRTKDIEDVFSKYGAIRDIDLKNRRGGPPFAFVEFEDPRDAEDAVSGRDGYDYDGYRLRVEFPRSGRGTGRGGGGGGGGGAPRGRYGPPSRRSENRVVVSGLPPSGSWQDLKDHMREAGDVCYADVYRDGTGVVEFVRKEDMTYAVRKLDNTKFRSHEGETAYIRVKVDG

[4] = biological target: T2, SRSF1 RRM1+2 YS (RRM12 YS); assay: ITC; NMR buffer: 50 mM L-Glu, 50 mM L-Arg, 0.05% beta-mercaptoethanol, 20 mM Na2HPO4 pH 7 (RRM1+2: plus 150 mM KCl, 1.5 mM MgCl2, 0.2 mM EDTA); NMR and ITC at 40 C; conditions: protein: recombinant; tags: GB1, His
[5] = biological target: T2, SRSF1 RRM1+2 YS (RRM12 YS); assay: ITC; 143 in the reviewer reply; NMR buffer: 50 mM L-Glu, 50 mM L-Arg, 0.05% beta-mercaptoethanol, 20 mM Na2HPO4 pH 7 (RRM1+2: plus 150 mM KCl, 1.5 mM MgCl2, 0.2 mM EDTA); NMR and ITC at 40 C; conditions: protein: recombinant; tags: GB1, His

SRSF1 RRM1 WT, sequence (Q07955 1-97): as the sequence (Q07955 1-97 Y37S/Y72S) above, with S37Y, S72Y counted along it

For AACAAA (ssRNA) [AACAAA RNA], the binding result (SRSF1 RRM1 WT) was “binds”, the Kd (SRSF1 RRM1 YS) was 21 µM and the binding result [1] was “binds”.

With AACGAA (ssRNA) [AACGAA RNA] the binding result [2] was “binds” and the Kd (SRSF1 RRM1 YS) was 25 µM.

UCAUUGGAUUUUUCAU (ssRNA): binds [3].

UUCAGA (ssRNA) [SMN1 exon7 ESE1]: binds [2].

UUUAGA (ssRNA) [SMN2 exon7 ESE1 counterpart]: no binding [2].

CCCCCC (ssRNA) [polyC (NMR, length not stated)]: binds [2].

AAAAAA (ssRNA) [polyA (NMR, length not stated)]: no binding [2].

GGGGGG (ssRNA) [polyG (NMR, length not stated)]: no binding [2].

For CCCCCC (ssRNA) [CCCCCC RNA (polyC)], the Kd (SRSF1 RRM1 YS) was 11 µM.

UUUUUU (ssRNA) [polyU (NMR, length not stated)]: no binding [2].

UUUUUU (ssRNA) [UUUUUU RNA (polyU)]: no binding (SRSF1 RRM1 YS).

For UGGAUUUUUCAU (ssRNA), the Kd [4] was 0.055 µM.

UUUUUGGAU (ssRNA) gave a Kd [4] of 0.164 µM.

UGGAUUUUUUUU (ssRNA) was tested, and the Kd [5] was 0.145 µM.
